Literature values, collected in article PMC7168109.

Target: T1, PTK7 (tyrosine protein kinase 7, CCK4) on CCRF-CEM or Jurkat cells (UniProt Q13308)
T1 sequence: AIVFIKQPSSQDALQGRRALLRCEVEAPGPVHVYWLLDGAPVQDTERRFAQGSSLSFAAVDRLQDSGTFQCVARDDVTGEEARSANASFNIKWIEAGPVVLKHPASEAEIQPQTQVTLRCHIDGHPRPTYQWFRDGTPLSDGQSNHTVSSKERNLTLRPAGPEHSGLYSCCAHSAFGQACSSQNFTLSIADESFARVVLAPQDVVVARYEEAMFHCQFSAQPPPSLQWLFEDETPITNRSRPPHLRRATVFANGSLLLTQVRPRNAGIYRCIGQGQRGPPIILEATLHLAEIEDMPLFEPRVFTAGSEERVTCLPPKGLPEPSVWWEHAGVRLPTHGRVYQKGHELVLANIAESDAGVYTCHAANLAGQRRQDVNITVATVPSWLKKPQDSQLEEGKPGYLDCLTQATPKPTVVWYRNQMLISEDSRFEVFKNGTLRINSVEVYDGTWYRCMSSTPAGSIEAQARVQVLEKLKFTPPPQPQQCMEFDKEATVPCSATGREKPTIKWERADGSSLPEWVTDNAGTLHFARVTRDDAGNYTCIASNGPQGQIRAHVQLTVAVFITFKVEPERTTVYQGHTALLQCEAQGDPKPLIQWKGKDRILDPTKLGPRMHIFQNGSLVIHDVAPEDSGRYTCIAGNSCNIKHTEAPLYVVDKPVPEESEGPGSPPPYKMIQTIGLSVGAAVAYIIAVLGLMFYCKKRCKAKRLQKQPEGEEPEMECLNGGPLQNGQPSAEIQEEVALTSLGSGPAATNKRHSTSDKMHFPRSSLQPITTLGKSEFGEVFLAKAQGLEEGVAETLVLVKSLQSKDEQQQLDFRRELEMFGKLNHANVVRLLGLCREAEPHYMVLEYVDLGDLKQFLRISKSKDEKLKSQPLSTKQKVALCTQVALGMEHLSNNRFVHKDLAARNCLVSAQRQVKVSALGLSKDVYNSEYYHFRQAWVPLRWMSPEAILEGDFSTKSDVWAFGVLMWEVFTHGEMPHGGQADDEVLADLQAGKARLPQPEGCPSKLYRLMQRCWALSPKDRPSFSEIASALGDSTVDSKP
Assay: cited, method not stated
Details: Flow cytometry on whole cells: 200 nM aptamer, 4 °C, 30 min in the dark, cells washed with PBS before incubation, three washes after; binding buffer and pH not …

Substance: Sgc8 (as cited)
- Kd: 0.8 nM
